Literature values in publication PMC8165686.

Molecular target: Spike RBD (SARS-CoV-2) (UniProt P0DTC2)

For “ACE2 23-mer peptide 21-43 (from UniProt Q9BYF1)”, the Kd is given as 47 nM.
